Data as given in patent US20170355992, “FACTOR V/Va-TARGETING APTAMER COMPOSITONS AND METHODS OF USING THE SAME” (Duke University, published 2017).

Tests used:
[1] = target: T1, Coagulation Factor V (FV), modified (Homo sapiens, UniProt P12259 P12259:29-2224); assay: filter; lead clone chosen by aPTT activity and binding to FV and FVa; no value given; conditions: tags: modified FV, protease-stabilised form described previously; label: 5'-32P
[2] = target: T2, Coagulation Factor Va (FVa), modified (Homo sapiens, UniProt P12259;P12259 P12259:29-737,P12259:1574-2224); assay: filter; lead clone; also at 2.0 uM inhibits FVa-phospholipid docking by light scattering (p125); conditions: tags: modified FVa, protease-stabilised form described previously; label: 5'-32P
T2 chain 1: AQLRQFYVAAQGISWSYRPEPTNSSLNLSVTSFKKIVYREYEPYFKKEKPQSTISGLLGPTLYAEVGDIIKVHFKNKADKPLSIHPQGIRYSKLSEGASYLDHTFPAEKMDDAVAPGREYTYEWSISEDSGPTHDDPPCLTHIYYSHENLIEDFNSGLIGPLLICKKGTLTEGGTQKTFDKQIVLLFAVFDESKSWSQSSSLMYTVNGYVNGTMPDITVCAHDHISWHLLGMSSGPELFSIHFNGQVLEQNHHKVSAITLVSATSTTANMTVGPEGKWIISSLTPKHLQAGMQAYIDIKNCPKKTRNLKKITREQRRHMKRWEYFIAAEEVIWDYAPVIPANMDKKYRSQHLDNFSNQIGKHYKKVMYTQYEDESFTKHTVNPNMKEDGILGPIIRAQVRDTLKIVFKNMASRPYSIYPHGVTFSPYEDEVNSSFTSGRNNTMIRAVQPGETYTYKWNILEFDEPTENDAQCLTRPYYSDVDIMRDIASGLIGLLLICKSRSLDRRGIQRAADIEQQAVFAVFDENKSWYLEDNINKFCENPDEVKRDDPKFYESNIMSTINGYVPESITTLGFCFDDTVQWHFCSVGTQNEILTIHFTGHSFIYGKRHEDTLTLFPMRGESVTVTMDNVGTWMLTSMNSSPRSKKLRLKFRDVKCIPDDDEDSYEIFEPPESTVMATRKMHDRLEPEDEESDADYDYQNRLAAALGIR
T2 chain 2: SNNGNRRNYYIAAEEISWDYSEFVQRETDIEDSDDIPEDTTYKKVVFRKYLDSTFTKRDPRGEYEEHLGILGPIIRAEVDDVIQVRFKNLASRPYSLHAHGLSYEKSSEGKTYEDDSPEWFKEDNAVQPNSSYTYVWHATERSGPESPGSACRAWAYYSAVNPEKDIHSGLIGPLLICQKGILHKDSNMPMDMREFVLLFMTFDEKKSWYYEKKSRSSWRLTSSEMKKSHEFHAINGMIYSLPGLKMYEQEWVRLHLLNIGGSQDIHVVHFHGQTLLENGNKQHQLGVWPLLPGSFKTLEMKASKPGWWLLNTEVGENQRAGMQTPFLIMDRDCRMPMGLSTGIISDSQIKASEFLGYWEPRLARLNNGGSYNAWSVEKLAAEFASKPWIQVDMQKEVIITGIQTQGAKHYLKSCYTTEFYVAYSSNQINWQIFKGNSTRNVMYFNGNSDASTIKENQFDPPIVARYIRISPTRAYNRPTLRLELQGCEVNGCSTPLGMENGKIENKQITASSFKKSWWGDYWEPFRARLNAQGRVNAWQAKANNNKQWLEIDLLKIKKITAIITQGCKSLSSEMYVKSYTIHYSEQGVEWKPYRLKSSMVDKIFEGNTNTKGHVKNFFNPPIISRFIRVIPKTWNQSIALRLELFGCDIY

Factor V light chain = Factor V light chain (UniProt P12259 P12259:1574-2224); assay: SPR; three runs: 1.926, 1.504, 7.997; text ~5 nM; HBS 2 mM CaCl2, 25 C; conditions: label: 5'-biotin
Method: (§1) The T18.3 binding constants were determined using surface plasmon resonance (SPR) with a BiaCore3000 (GE Healthcare). This method was used to determine apparent KDs for T18.3 to modified FV, modified FVa, the FV heavy chain, and the FV light chain. The T18.3 aptamer was synthesized (Biosynthesis, Lewisville, Tex.) and included a biotin and PEG 11 spacer on the 5′ end to allow for immobilization of the aptamer on a biotin CAPture chip kit (GE Healthcare). Prior to chip coating, the biotinylated T18.3 was refolded using the same protocol as the in vitro transcribed T18.3 by heating to 95° C. for 3 minutes followed by 3 minutes at room temperature. Aptamer conjugation onto the chip was achieved by flowing aptamer solution over the chip at a rate of 2 μL/min for 5 minutes. For binding to the modified FV, FVa, and purified FV heavy chain, 5.0 ng of aptamer was coated onto the chip. For the purified FV light chain experiments 15.3 ng of aptamer was coated onto the chip. Binding experiments using SPR was performed at 25° C. in HBS with CaCl2, without the addition of BSA or PEG 8000. […] Increasing concentrations of protein were flowed over the T18.3-coated chip and apparent KD was determined by calculating the differences in response units (RU) from buffer for each protein concentration immediately before the end of each protein injection and plotted as ΔRU versus protein concentration. […]

[3] = target: T2, Coagulation Factor Va (FVa), modified; assay: SPR; three runs: 6.222, 5.408, 5.115; text ~6 nM; HBS 2 mM CaCl2, 25 C; conditions: tags: modified FVa, protease-stabilised form described previously; label: 5'-biotin
Method: as §1

[4] = target: T1, Coagulation Factor V (FV), modified; assay: SPR; three runs: 16.55, 10.00, 8.213; text ~10 nM; HBS 2 mM CaCl2, 25 C; conditions: tags: modified FV, protease-stabilised form described previously; label: 5'-biotin
Method: as §1

[5] = target: T1, Coagulation Factor V (FV), modified; assay: filter; no binding above starting library; conditions: tags: modified FV, protease-stabilised form described previously; label: 5'-32P
Factor Xa = Factor Xa (Homo sapiens, UniProt P00742;P00742 P00742:41-179,P00742:235-488); assay: filter; no binding up to 1000 nM FXa; conditions: label: 5'-32P
[6] = target: T2, Coagulation Factor Va (FVa), modified; assay: filter; lead clone chosen by aPTT activity and binding to FV and FVa; no value given; conditions: tags: modified FVa, protease-stabilised form described previously; label: 5'-32P
[7] = target: T1, Coagulation Factor V (FV), modified; assay: FP_none filter; conditions: tags: modified FV, protease-stabilised form described previously; label: 5'-32P
Method: (§2) Apparent binding affinity of the aptamers to a purified protein was determined using double filter nitrocellulose binding assays. Binding of the radiolabeled pooled RNA, 11HMT, and 11Mut2 to modified FV and FVa was assessed by incubating trace amounts of radiolabeled RNA with serial dilutions of the purified target protein. For SELEX round binding, pooled RNAs were incubated with modified FV or FVa diluted two fold from 0 nM to 750-800 nM for both proteins. For 11HMT, the radiolabeled RNAs were incubated with both proteins from 0 nM to 500 nM. The radiolabeled RNAs were denatured and re-folded in Hepes-buffered saline (HBS) with CaCl2 (20 mM Hepes pH 7.4, 150 mM NaCl, 2 mM CaCl2), 0.01% bovine serum albumin (BSA), and 0.1% w/v polyethylene glycol 8000 (PEG 8000) by incubating at 95° C. for 3 minutes followed by cooling to room temperature for 3 minutes. The radiolabeled RNA alone was incubated at 37° C. for 5 minutes, followed by incubation with the protein in HBS with CaCl2, 0.01% BSA, and 0.1% w/v PEG 8000 at 37° C. for 5 minutes. […] Bound and unbound RNA was quantitated using a Storm 825 phosphoimager (GE Healthcare, Little Chalfont, Buckinghamshire, UK) and quantified via densitometry.
Target sequence in this assay (P12259 29-2224, one chain of several): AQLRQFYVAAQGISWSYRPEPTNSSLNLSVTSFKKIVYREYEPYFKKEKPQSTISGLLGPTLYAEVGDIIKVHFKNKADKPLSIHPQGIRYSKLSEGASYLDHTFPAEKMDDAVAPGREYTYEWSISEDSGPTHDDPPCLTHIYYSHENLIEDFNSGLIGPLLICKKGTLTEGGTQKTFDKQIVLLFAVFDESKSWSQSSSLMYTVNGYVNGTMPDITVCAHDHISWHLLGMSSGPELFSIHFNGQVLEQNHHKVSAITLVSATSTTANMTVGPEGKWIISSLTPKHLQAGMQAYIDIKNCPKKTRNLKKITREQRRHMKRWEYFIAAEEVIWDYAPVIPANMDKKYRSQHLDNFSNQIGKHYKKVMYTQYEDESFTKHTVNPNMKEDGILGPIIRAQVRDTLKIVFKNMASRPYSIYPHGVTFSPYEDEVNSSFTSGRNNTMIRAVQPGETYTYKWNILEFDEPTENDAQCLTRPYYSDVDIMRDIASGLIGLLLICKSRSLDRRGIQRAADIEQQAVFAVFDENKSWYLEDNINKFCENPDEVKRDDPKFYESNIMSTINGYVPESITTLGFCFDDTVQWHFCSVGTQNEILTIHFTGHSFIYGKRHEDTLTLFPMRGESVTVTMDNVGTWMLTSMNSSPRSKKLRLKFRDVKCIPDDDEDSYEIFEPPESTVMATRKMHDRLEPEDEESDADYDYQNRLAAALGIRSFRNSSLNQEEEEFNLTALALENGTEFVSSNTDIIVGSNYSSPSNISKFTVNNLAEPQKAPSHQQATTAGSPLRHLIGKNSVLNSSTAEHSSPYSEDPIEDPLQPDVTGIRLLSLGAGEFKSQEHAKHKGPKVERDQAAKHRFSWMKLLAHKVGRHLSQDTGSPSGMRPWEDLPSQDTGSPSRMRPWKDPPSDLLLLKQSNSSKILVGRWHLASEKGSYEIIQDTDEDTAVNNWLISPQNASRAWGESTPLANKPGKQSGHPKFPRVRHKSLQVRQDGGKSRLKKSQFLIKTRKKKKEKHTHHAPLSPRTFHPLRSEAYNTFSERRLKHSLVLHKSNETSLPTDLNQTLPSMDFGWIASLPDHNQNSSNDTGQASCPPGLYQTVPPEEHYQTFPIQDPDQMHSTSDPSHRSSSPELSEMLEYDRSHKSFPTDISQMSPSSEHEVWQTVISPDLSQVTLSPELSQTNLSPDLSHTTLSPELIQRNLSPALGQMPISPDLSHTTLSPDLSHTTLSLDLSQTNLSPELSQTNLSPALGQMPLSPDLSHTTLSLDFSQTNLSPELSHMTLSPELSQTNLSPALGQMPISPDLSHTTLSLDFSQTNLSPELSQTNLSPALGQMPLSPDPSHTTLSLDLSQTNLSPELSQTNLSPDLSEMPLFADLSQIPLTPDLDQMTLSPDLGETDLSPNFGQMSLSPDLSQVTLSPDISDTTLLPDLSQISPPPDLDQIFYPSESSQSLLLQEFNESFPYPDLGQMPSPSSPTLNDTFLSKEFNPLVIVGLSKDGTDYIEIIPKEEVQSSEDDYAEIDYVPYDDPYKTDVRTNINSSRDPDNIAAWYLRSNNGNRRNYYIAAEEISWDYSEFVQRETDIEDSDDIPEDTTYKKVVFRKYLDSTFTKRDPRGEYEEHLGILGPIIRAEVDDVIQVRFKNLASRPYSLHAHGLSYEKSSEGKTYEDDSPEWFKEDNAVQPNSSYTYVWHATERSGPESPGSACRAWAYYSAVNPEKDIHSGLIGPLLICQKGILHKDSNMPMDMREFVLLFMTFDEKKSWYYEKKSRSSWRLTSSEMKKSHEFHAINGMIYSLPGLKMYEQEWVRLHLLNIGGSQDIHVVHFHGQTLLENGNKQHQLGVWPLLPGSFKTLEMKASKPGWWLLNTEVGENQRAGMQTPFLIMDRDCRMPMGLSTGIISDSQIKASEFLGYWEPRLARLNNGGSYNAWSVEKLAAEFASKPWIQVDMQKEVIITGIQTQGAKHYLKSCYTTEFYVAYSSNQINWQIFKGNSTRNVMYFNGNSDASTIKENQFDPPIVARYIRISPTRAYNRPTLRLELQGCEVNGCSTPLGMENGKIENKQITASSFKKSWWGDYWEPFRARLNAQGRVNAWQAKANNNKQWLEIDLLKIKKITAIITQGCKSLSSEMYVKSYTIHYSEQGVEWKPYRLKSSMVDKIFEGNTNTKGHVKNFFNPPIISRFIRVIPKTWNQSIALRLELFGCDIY

[8] = target: T2, Coagulation Factor Va (FVa), modified; assay: filter; HBS 2 mM CaCl2, 0.01% BSA, 0.1% PEG 8000, 37 C; low Bmax; conditions: tags: modified FVa, protease-stabilised form described previously; label: 5'-32P
Method: as §2

[9] = target: T1, Coagulation Factor V (FV), modified; assay: filter; no binding above starting library; conditions: tags: modified FV, protease-stabilised form described previously; label: 5'-32P; remark: listed apart in the source
Method: as §2

[10] = target: T2, Coagulation Factor Va (FVa), modified; assay: filter; no binding above starting library; conditions: tags: modified FVa, protease-stabilised form described previously; label: 5'-32P
Method: as §2

Factor Xa, sequence (P00742 41-179, chain 1 of 2): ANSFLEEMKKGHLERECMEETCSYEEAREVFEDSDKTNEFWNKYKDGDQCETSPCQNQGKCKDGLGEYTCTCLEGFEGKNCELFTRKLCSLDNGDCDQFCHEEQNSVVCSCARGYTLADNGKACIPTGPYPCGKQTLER
Factor Xa, sequence (P00742 235-488, chain 2 of 2): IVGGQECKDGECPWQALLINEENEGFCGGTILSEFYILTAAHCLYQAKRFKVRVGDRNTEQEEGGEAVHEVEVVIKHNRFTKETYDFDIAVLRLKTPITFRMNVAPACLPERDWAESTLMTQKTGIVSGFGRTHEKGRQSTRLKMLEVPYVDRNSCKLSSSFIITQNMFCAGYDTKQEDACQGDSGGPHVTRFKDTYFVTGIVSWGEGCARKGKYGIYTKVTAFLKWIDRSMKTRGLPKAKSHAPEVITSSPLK

B1: FV R8c7 (ssRNA)
RNA: GGGAGGACGAUGCGGUCGCCCAAACUUGGAUAACCUCACCGCAAUGGCGGCUUGUCAGACGACUCGCUGAGGAUCCGAGA
modifications: 2'-F C and U
[1]
  binding result: binds
[2]
  binding result: binds

B2: T18.3 biotinylated (ssRNA)
RNA: GGACUUGGAUAACCUCACCGCAAUGGCGGCUUGUCAGACGACUCGCUGAGGAUCCGAG
modifications: 2'-F C and U; 5' biotin and PEG11 spacer
Factor V light chain
  Kd: 3.47 nM
[3]
  Kd: 5.64 nM
[4]
  Kd: 11.7 nM

B3: 18.3Mut1 (ssRNA)
RNA: GGACUUGGAUAACCUCACCGCAAUGGCGGAGGGUCAGACGACUCGCUGAGGAUCCGAG
modifications: 2'-F C and U
[5]
  binding result: no binding
Factor Xa
  binding result: no binding

B4: T18.3 (ssRNA)
RNA: GGACUUGGAUAACCUCACCGCAAUGGCGGCUUGUCAGACGACUCGCUGAGGAUCCGAG
modifications: 2'-F C and U
Factor Xa
  binding result: no binding

B5: FVa R9c11 (ssRNA)
RNA: GGGAGGACGAUGCGGUCACGCCCCUCAGGAUCCAACGCACAAUUACGUGCCUUGUCAGACGACUCGCUGAGGAUCCGAGA
modifications: 2'-F C and U
[1]
  binding result: binds
[6]
  binding result: binds

## GGAUCCAACGCACAAUUACGUGCCUUGUCAGACGACUCGCUGAGGAUCC (ssRNA, 2'-F C and U) [11HMT]
[7]
  Kd: 23.2 nM
[8]
  Kd: 0.822 nM

## GGAUCCAACGCACAAUUACGUGCCGGUUCAGACGACUCGCUGAGGAUCC (ssRNA, 2'-F C and U) [11Mut2]
[9]
  binding result: no binding
[10]
  binding result: no binding
